Results on five molecules are retold here after patent publication US20250032605A1 (GENERAL HOSPITAL, published 2025).

Assay in all cases: BLI with recombinant Fabs, drawn table of KD (µM)
Assay [1] has as its target RaTG13.
Assay [2] addresses SHC014.
Assay [3] has as its target T1, SARS-2 RBD (wild-type SARS-CoV-2 receptor binding domain, monomer) (SARS-CoV-2, UniProt P0DTC2 319-529).
For assay [4], the target named is T2, SARS-1 RBD (SARS-CoV receptor binding domain, monomer) (SARS-CoV (SARS-1), UniProt P59594 306-515).
The target in assay [5] is T3, WIV1 RBD (WIV1-CoV receptor binding domain, monomer) (WIV1-CoV).
For assay [6], the target named is RaTG13. The source holds these as a separate data set.
Assay [7] has as its target SHC014. This is another data set of the same source.
Assay [8] deals with T2, SARS-1 RBD (SARS-CoV receptor binding …). The source holds these as a separate data set.
The target of assay [9] is T3, WIV1 RBD (WIV1-CoV receptor binding …). This is another data set of the same source.
Assay [10] deals with T1, SARS-2 RBD (wild-type SARS-CoV-2 …). This is another data set of the same source.

Where two headings read alike, the source gives them in different places.

B1: Ab20 Fab (Fab, V domains shown)
VH: EVQLQQSGPELVKPGASVKISCKASGFSFTGYSMNWMKQSPEKSLEWIGEINPTTGGTTYNQKFKAKATLTVDKSSSTAYIQLKSLTSEDSAVYYCARGRADYWGQGTTLTVSS
VL: DIVLTQSPASLAVSLGQRATISCRASESVEYYGTGLVQWFQQKPGQPPKLLIYAASNVESGVPARFSGSGSGTDFSLNIHSVEEDDIAMYFCHQSRKLPWTFGGGTKLEIK
As usually defined, the Kd is a measure of binding affinity in units of concentration. Turning to B1, the Kd in the assay with RaTG13 [1] was > 100000 nM; with SHC014 [2], > 100000 nM; in [3], 30 nM; in assay [4], > 100000 nM; in assay [5], > 100000 nM; with RaTG13 [6], > 100000 nM. The Kd (in the assay with SHC014 [7]; in assay [8]; in assay [9]) was > 100000 nM in each case.

B2: Ab15 Fab (Fab, V domains shown)
VH: EVQLQQSGPELVKPGASVKISCKASGYSFTGYYMNWVKQSPEKSLEWIGEINPNFGGTTYNQKFKAKATLTVDKSSSTAYMQLKSLTSEDSAVYYCARYYGNLYAMDYWGQGTSVTVS
VL: DILMTQSPSSMSVSLGDTVSITCHASQGISSNIGWLQQKPGKSFKGLIYHGTNLEDGVPSRFSGSGSGAAYSLTISSLESEDFADYYCVQYTHFPYTFGGGTKLEIK
As for B2, the Kd in the assay with RaTG13 [1] is 1200 nM; in assay [3] it was 1100 nM; with RaTG13 [6] it was 1200 nM; in [10] it was 1100 nM.

B3: Ab16 Fab (Fab, V domains shown)
VH: EVQLQQSGPELVKPGASVKISCKASGYSFNNYYMNWVKQSPEKSLEWIGEINPNSGYTSYNQKFRAKATLTVDKSSTTAYMQLKSLTSEDSAVYYCARYFGNLFAMDFWGQGTSVTVS
VL: DILMTQSPSSMSVSLGDTVSITCHASQGIGSNIGWLQQKPGKSFKGLIYLGTNLEDGVPSRFSGSGSGADYSLTISSLESEDFADYYCVQYVQFPYTFGGGTKLEIK
As for B3, the dissociation constant (Kd) in the assay with RaTG13 [1] stood at 200 nM; in the assay with SHC014 [2], 90 nM; in [3], 30 nM; in [4] it was 100 nM; in [5] it was 210 nM.

B4: Ab17 Fab (Fab, V domains shown)
VH: EVQLQQSGPELVKPGASVKISCKASGYSFTDYYMNWVKQSPEKSLEWIGEINPNTGGTTYNQKFKAKATLTVDKSSSTAYMQLKSLTSEDSAVYYCARYYGNLYAMDYWGQGTSVTVSS
VL: DILMTQSPSSMSVSLGDTVSITCHASQGISSNIGWLQQKPGKSFKGLIYHGTNLEDGVPSRFSGSGSGADYSLTISSLESEDFADYYCVQYVQFPYTLGGGTKLEIK
With B4, the Kd with RaTG13 [1] came out at 180 nM; with SHC014 [2] it was 90 nM; in assay [3], 70 nM; in assay [4], 80 nM; in assay [5] it was 370 nM.

B5: Ab19 Fab (Fab, V domains shown)
VH: QVQLQQSGAELARPGASVKLSCKASGYPFTSYGINWVKQRTGQGLEWIGEIYPRIGNTYYNEKFKGKATLTADKSSSTAYMEFRSLTSEDSAVYFCARSWNSNYGEYYFDYWGQGTTLTVS
VL: DIVMTQSHKFMSTSIGDRVSITCKASHDVSTAVAWYQQKPGQSPKLLIYWASTRHTGVPDRFTGSGSGTDYTLTIRSVQAEDLALYYCQQHYSTPYTFGGGTKLEIK
Consider B5, for which the Kd was > 100000 nM with RaTG13 [1]; > 100000 nM in the assay with SHC014 [2]; 2000 nM in assay [3]; > 100000 nM in assay [4]; > 100000 nM in assay [5]; > 100000 nM in the assay with RaTG13 [6]. In addition, the Kd with SHC014 [7] was > 100000 nM; in assay [10], 2000 nM; in assay [8], > 100000 nM; in assay [9], > 100000 nM.
